# Experimental data from US9395368B2, “Methods, agents and peptides for inducing an immune response to matrix metalloproteinase-2 expressing tumors” (New York University, priority 2010, dated 2016).
# B1: active MMP-2: Purified human MMP-2 (mixture of the proenzyme (50%) and the active form (50%)) purchased from Biomol (protein, listed as Homo sapiens)
# chain: MEALMARGALTGPLRALCLLGCLLSHAAAAPSPIIKFPGDVAPKTDKELAVQYLNTFYGCPKESCNLFVLKDTLKKMQKFFGLPQTGDLDQNTIETMRKPRCGNPDVANYNFFPRKPKWDKNQITYRIIGYTPDLDPETVDDAFARAFQVWSDVTPLRFSRIHDGEADIMINFGRWEHGDGYPFDGKDGLLAHAFAPGTGVGGDSHFDDDELWTLGEGQVVRVKYGNADGEYCKFPFLFNGKEYNSCTDTGRSDGFLWCSTTYNFEKDGKYGFCPHEALFTMGGNAEGQPCKFPFRFQGTSYDSCTTEGRTDGYRWCGTTEDYDRDKKYGFCPETAMSTVGGNSEGAPCVFPFTFLGNKYESCTSAGRSDGKMWCATTANYDDDRKWGFCPDQGYSLFLVAAHEFGHAMGLEHSQDPGALMAPIYTYTKNFRLSQDDIKGIQELYGASPDIDLGTGPTPTLGPVTPEICKQDIVFDGIAQIRGEIFFFKDRFIWRTVTPRDKPMGPLLVATFWPELPEKIDAVYEAPQEEKAVFFAGNEYWIYSASTLERGYPKPLTSLGLPPDVQRVDAAFNWSKNKKTYIFAGDKFWRYNEVKKKMDPGFPKLIADAWNAIPDNLDAVVDLQGGGHSYFFKGAYYLKLENQSLKSVKFGSIKSDWLGC
# Tested on: IL-12p35 and IL-12p40 in DCs
# Test: Intracellular staining of IL-12p35 and IL-12p40 chains in DCs
# Type: cell-based, human
# Procedure: Immature DCs were incubated with MMP-2 (0.5 μg/mL or 5 μg/mL) and poly(I:C)-matured 1 h later. IL-12 levels were measured 16 h later. (A) Results are represented as a percentage of IL-12p70 levels, measured by CBA, produced when DCs were incubated with poly(I:C) only (n=11). (B) For intracellular staining of IL-12p35 and IL-12p40 chains, Brefeldin A was added 4 h after poly(I:C) activation and cells were stained after an additional 12 h incubation. Numbers in the upper right quadrants are the percentages of each population for a representative donor (n=3). (C,D) Immature DCs were incubated with MMP-2 for 1 h (5 μg/mL) before poly(I:C) maturation. Intracellular staining of phosphorylated (Y701) STAT1 (P-STAT1) was performed 3 h later. A representative donor (C) and results for all 3 donors (D) are shown. […] (E) Immature DCs were incubated with MMP-2 and poly(I:C)-matured 1 h later. IFNβ levels were measured by ELISA 16 h later. Results are represented as a percentage of IFNβ levels produced when DCs were incubated with poly(I:C) only (n=9). (F,G) 10^6DCs/lane were treated with 0.1 μg MMP-2 or controls. Poly(I:C) was added 1 h later. IFNAR1 protein expression was detected the next day by Western blot analysis using a rabbit monoclonal antibody. A representative donor (F) and results for all 7 donors (G) are shown. (H) The rhIFNAR1 (5 μg; ≈110 kD) was incubated overnight with 0.3 μg MMP-2 before performing Western blot analysis for IFNAR1. The second band (around 90 kD) and the third band (25 kD) very likely correspond to either a degraded form of the protein still recognized by the antibody or a contaminant present in the commercial protein preparation and non-specifically recognized by the antibody. MMP-2 enzymatic activity was controlled (FIG. 13C-D). […]
# Intracellular staining T-bet and GATA-3 expression was measured on resting T cells. […] Cytokine production by T cells was also assessed by intracellular staining T cells were stimulated with 2 μM overlapping peptides. […]
molecule,measurement,setting,value
B1,IL-12p40 production,,not affected overall
same,"IL-12p35 production, mean inhibition",pre-exposure of DCs,65%
same,DCs expressing the IL-12p35 subunit,"pre-incubated before poly(I:C) activation, poly(I:C) only 4.33%±0.94",1.5%±0.22
